Target: Sortilin SORTECD_HIS (human) (UniProt Q99523)
Assay: HTRF, displacement of PGRN from His-tagged Sortilin ECD

Sequence of Sortilin SORTECD_HIS (human) (Q99523 other isoform, or with tags, fused parts or gaps limits assumed): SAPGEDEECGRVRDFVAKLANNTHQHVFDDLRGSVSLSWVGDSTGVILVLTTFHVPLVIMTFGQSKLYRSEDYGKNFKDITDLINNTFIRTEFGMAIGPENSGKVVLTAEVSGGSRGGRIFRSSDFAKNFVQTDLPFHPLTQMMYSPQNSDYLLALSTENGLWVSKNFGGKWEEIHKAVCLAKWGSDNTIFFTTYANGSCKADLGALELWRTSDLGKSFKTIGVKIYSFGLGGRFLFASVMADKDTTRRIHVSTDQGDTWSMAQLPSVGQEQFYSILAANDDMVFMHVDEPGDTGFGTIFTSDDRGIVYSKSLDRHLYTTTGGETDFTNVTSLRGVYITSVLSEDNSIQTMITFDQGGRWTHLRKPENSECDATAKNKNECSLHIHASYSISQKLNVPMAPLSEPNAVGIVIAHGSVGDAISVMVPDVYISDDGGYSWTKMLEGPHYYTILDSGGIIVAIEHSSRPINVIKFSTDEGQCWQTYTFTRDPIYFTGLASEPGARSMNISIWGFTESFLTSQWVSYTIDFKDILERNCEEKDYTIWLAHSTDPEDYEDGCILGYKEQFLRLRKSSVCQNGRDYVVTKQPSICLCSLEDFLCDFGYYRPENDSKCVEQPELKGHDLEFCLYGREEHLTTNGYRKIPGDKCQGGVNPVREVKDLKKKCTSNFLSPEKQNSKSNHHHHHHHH

IgG1-b12 (antibody) gave a % inh highest conc of 37% and a % inhibition at 1 µM of 37%.
